# Results published in US20090311183 (published 2009).
# Where two headings read alike, the source gives them in different places.
# Columns and labels:
# Assay in all cases: SPR
# human MMP-12 [1] = target: human MMP-12 (human)
# mouse MMP-12 = mouse MMP-12 (mouse)
# human MMP-12 [2] = target: human MMP-12 (human); remark: listed apart in the source
# Sequence of human MMP-12 (human) (B2R9X8 whole entry): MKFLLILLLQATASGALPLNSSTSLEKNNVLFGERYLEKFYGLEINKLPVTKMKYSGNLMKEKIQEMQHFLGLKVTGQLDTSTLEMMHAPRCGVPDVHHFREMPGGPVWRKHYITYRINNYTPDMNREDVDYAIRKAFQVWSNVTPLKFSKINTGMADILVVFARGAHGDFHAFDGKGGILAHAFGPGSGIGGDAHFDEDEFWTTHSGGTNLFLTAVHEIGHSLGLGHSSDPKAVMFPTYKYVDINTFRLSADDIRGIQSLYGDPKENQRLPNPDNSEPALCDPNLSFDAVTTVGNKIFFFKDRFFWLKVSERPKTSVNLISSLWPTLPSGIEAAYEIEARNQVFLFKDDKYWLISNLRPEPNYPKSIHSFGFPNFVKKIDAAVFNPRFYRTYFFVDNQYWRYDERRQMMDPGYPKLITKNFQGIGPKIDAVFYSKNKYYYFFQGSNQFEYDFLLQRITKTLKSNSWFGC
# Sequence of mouse MMP-12 (mouse) (chain, as listed by the source): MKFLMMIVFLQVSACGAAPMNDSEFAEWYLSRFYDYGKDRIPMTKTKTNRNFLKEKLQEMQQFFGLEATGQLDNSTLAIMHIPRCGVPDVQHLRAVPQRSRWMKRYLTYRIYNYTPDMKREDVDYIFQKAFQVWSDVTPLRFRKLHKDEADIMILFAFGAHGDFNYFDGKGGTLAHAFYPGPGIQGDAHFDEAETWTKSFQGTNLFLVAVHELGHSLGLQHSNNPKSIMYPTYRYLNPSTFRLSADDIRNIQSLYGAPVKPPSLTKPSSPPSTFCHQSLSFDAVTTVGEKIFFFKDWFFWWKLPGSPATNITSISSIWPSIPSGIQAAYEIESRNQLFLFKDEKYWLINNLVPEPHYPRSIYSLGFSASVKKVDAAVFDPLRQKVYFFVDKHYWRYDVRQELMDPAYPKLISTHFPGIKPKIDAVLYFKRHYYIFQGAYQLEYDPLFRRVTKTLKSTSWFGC
Binder,Kd (human MMP-12 [1]),koff (mouse MMP-12),Kd (human MMP-12 [2])
"539B-M0121-E07 (antibody, V domains shown) VH: EVQLLESGGGLVQPGGSLRLSCAASGFTFSWYGMHWVRQAPGKGLEWVSGIVSSGGETFYADSVKGRFTISRDNSKNTLYLQMNSLRAEDTAVYYCAKDIRGVFLSGLFDHWGRGTLVTVSS VL: DIQMTQSPSSLSASVGDRVTITCRANQSIYTYLNWYQQKPGKAPELLIYAASSLQSGVPSRFSGSGSGTDFTLTISSLQPEDFATYYCQQAGIFGQGTKLEIK",0.197 nM,–,–
"539B-M0065-H05 IgG (antibody, V domains shown) VH: EVQLLESGGGLVQPGGSLRLSCAASGFTFSYYGMGWVRQAPGKGLEWVSVISSSGGFTFYADSVKGRFTISRDNSKNTLYLQMNSLRAEDTAVYYCAKDIRGAYSSGLFDYWGRGTLVTVSS VL: DIQMTQSPSSLSASVGDRVTITCRANQSIYTYLNWYQQKPGKAPELLIYAASSLQSGVPSRFSGSGSGTDFTLTISSLQPEDFATYYCQQAGIFGQGTKLEIK",–,–,2.2 nM
"539B-M0130-C12 (antibody, V domains shown) VH: EVQLLESGGGLVQPGGSLRLSCAASGFTFSEYNMHWVRQAPGKGLEWVSGIVPSGGLTHYADSVKGRFTISRDNSKNTLYLQMNSLRAEDTAVYYCARDIRGAYSAGIFDYWGRGTLVTVSS VL: DIQMTQSPSSLSASVGDRVTITCRANQSIYTYLNWYQQKPGKAPELLIYAASSLQSGVPSRFSGSGSGTDFTLTISSLQPEDFATYYCQQAGIFGQGTKLEIK",–,–,0.68 nM

# Next, values leading:
Kd (human MMP-12 [1]),koff (mouse MMP-12),Kd (human MMP-12 [2]),Binder
–,4.84e-05 s⁻¹,–,"539B-M0131-A06 (antibody, V domains shown) VH: EVQLLESGGGLVQPGGSLRLSCAASGFTFSWYWMHWVRQAPGKGLEWVSGISPSGGMTMYADSVKGRFTISRDNSKNTLYLQMNSLRAEDTAVYYCARDIVGPYSAGLFDYWGRGTLVTVSS VL: DIQMTQSPSSLSASVGDRVTITCRANQSIYTYLNWYQQKPGKAPELLIYAASSLQSGVPSRFSGSGSGTDFTLTISSLQPEDFATYYCQQAGIFGQGTKLEIK"
1.17 nM,0.000193 s⁻¹,–,"539B-M0118-F11 (antibody, V domains shown) VH: EVQLLESGGGLVQPGGSLRLSCAASGFTFSYYNMHWVRQAPGKGLEWVSGISPSGGTTFYADSVKGRFTISRDNSKNTLYLQMNSLRAEDTAVYYCARDITGAYSAGLFDLWGRGTLVTVSS VL: DIQMTQSPSSLSASVGDRVTITCRANQSIYTYLNWYQQKPGKAPELLIYAASSLQSGVPSRFSGSGSGTDFTLTISSLQPEDFATYYCQQAGIFGQGTKLEIK"
